Sequences and labels used below:
B1: FAM164A (parent)
chain: YDPDYIQCPYCQRRFNENAADRHI
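Note: lentivirally expressed fusions sorted by FACS into six bins by GFP to DsRed ratio, PSI derived from sequencing read proportions per bin multiplied by bin number.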

Variants of B1 are the subject of the series. Kind of series: protein stability index of a GFP-peptide fusion (GPS, HEK-293T) (PSI 1-6); higher = more stable. Particulars: c terminus: a fixed tail appended.
On to YDPDYIQCPYCRRRFNENAADRHI, for which the protein stability index came to 4.27. Take YDPDYIQCPYCSRRFNENAADRHI: the protein stability index was found to be 3.52. For the variant YDPDYIQCPYCARRFNENAADRHI, the protein stability index was found to be 4.08.

Regarding YDPDYIQCPYCVRRFNENAADRHI, the protein stability index is 2.48. In the case of YDPDYIQCPYCGRRFNENAADRHI it was 4.74; in that of YDPDYIQCPYCYRRFNENAADRHI, 4.3. In the case of YDPDYIQCPYCKRRFNENAADRHI it was 5.16.

Turning to YDPDYIQCPYCTRRFNENAADRHI, the protein stability index amounted to 2.4. In the case of YDPDYIQQPYCQRRFNENAADRHI it was 3.7.

Turning to YDPDYIQYPYCQRRFNENAADRHI, the protein stability index came out at 3.43.

Consider YDPDYIQIPYCQRRFNENAADRHI, for which the protein stability index is 3.13. In the case of YDPDYIQSPYCQRRFNENAADRHI it was 3.68. For YDPDYIQVPYCQRRFNENAADRHI, the protein stability index amounted to 3.81. On to YDPDYIQMPYCQRRFNENAADRHI, for which the protein stability index turned out to be 3.63.

For YDPDYIQLPYCQRRFNENAADRHI, the protein stability index was 3.56. As to YDPDYIQPPYCQRRFNENAADRHI, the protein stability index was 3.72. In the case of YDPDYIQKPYCQRRFNENAADRHI it was 3.54; in that of YDPDYIQCPYCQRRFNENAADRRI, 3.96. As for YDPDYIQCPYCQRRFNENAADRSI, the protein stability index was 3.67. For YDPDYIQCPYCQRRFNENAADRMI, the protein stability index is 4.4. Regarding YDPDYIQCPYCQRRFNENAADRAI, the protein stability index was found to be 4.4.

Turning to YDPDYIQCPYCQRRFNENAADRWI, the protein stability index worked out at 3.63.

Take YDPDYIQCPYCQRRFNENAADRPI: the protein stability index is 3.86. Regarding YDPDYIQCPYCQRRFNENAADRII, the protein stability index came to 4.21. In the case of YDPDYIQCPYCQRRFNENAADRCI it was 4.54. In the case of YDPDYIQCPYCQRRFNENAADRVI it was 4.25. In the case of YDPDYLQCPYCQRRFNENAADRHI it was 3.27; in that of YDPDYMQCPYCQRRFNENAADRHI, 3.42; in that of YDPDYFQCPYCQRRFNENAADRHI, 3.29. Turning to YDPDYCQCPYCQRRFNENAADRHI, the protein stability index was 3.7. In the case of YDPDYIQCPYCQRRFNLNAADRHI it was 5.16; in that of YDPDYIQCPYCQRRFNHNAADRHI, 4.97. In the case of YDPDYIQCPYCQRRFNMNAADRHI it was 5.01; in that of YDPDYIQCPYCQRRFNWNAADRHI, 4.77.

With YDPDYIQCPYCQRRFNVNAADRHI, the protein stability index stood at 5.04. In the case of YDPDYIQCPYCQRRFNRNAADRHI it was 4.89.

Consider YDPDYIQCPYCQRRFNPNAADRHI, for which the protein stability index was found to be 5.37. As to YDPDYIQCPYCQRRFNYNAADRHI, the protein stability index stood at 4.68.

Consider YDPDYIQCPYCQRRFNCNAADRHI, for which the protein stability index was found to be 5.13. In the case of YDPDYIQCPYCQRRFNQNAADRHI it was 4.94; in that of YDPDYIQCPYCQRRFDENAADRHI, 3.79; in that of YDPDYIQCPYCQRRFGENAADRHI, 3.71. In the case of YDPDYIQCPYCQRRFTENAADRHI it was 4.48. As for YDPDYIQCPYCQRRFYENAADRHI, the protein stability index was found to be 4.94. In the case of YDPDYIQCPYCQRRFAENAADRHI it was 4.63; in that of YDPDYIQCPYCQRRFPENAADRHI, 5.53; in that of YDPDYIQCPYCQRRFFENAADRHI, 4.49. For YDPDYIQCPYCQRRFHENAADRHI, the protein stability index was determined as 3.8. Turning to YDPDYIQCWYCQRRFNENAADRHI, the protein stability index stood at 2.52. In the case of YDPDYIQCTYCQRRFNENAADRHI it was 2.55; in that of YDPDYIQCDYCQRRFNENAADRHI, 3.09; in that of YDPDYIQCSYCQRRFNENAADRHI, 2.95. Regarding YDPDYIQCFYCQRRFNENAADRHI, the protein stability index is 2.18. In the case of YDPDYIQCVYCQRRFNENAADRHI it was 2.44.

As for YDPDYIQCYYCQRRFNENAADRHI, the protein stability index is 2.07. In the case of YDPDYIQCAYCQRRFNENAADRHI it was 2.38. In the case of YDPDYIQCEYCQRRFNENAADRHI it was 3.11; in that of YDPDYIQCHYCQRRFNENAADRHI, 2.83. In the case of YDPDYIQCMYCQRRFNENAADRHI it was 2.39; in that of YDPDYIQCGYCQRRFNENAADRHI, 2.54. On to YDPDYIQCPYCQRRFNENAADAHI, for which the protein stability index is 4.49. In the case of YDPDYIQCPYCQRRFNENAADQHI it was 4.59; in that of YDPDYIQCPYCQRRFNENAADSHI, 4.03; in that of YDPDYIQCPYCQRRFNENAADMHI, 4.48. With YDPDYIQCPYCQRRFNENAADNHI, the protein stability index is 4.29. In the case of YDPDYIQCPYCQRRFNENAADVHI it was 4.17; in that of YDPDYIQCPYCQRRFNENAADEHI, 4.47. In the case of YDPDYIQCPYCQRRFNENAADGHI it was 4.24; in that of YDPDYIQCPYCQRRFNEVAADRHI, 3.86; in that of YDPDYIQCPYCQRRFNETAADRHI, 4.11.

For YDPDYIQCPYCQRRFNEPAADRHI, the protein stability index is 3.91. For the variant YDPDYIQCPYCQRRFNEFAADRHI, the protein stability index worked out at 3.22.

Turning to YDPDYIQCPYCQRRFNEWAADRHI, the protein stability index was determined as 3.4. In the case of YDPDYIQCPYCQRRFNEMAADRHI it was 3.48. On to YDPDYIQCPYCQRRFNEIAADRHI, for which the protein stability index is 3.36.

With YDPDYIQCPYCQRRFNEHAADRHI, the protein stability index worked out at 4.37.

In the case of YDPDYIQCPYCQRRFNENAEDRHI, the protein stability index was determined as 4.34. In the case of YDPDYIQCPYCQRRFNENAQDRHI it was 3.82; in that of YDPDYIQCPYCQRRFNENAVDRHI, 4.36; in that of YDPDYIQCPYCQRRFNENAKDRHI, 3.76.

As to YDPDYIQCPYCQRRFNENACDRHI, the protein stability index is 4.44. YDPDYIQCPYCQRRFNENATDRHI: the protein stability index stood at 3.93. In the case of YDPDYIQCPYCQRRFNENASDRHI it was 4. In the case of YDPDYIQCPYCQRRFNENAGDRHI it was 3.85; in that of YDPDYIQCPYCQRRFNENAWDRHI, 3.52. In the case of YDPDYIQCPYCQFRFNENAADRHI it was 3.18; in that of YDPDYIQCPYCQQRFNENAADRHI, 3.75. On to YDPDYIQCPYCQIRFNENAADRHI, for which the protein stability index turned out to be 2.92.

For YDPDYIQCPYCQSRFNENAADRHI, the protein stability index stood at 3.62. Consider YDPDYIQCPYCQYRFNENAADRHI, for which the protein stability index stood at 2.7. In the case of YDPDYIQCPYCQLRFNENAADRHI it was 2.64; in that of YDPDYIQCPYCQVRFNENAADRHI, 2.23; in that of YDPDYIQCPYCQWRFNENAADRHI, 2.13. In the case of YDPDYIQCPECQRRFNENAADRHI it was 3.26.

The values above are taken from the supplement of paper PMC10567573.
